Data on 30 sequences can be found in the nanobody polyreactivity screen of Harvey et al. (2022).

This data set is described as follows: yeast display, Sf9 membrane polyspecificity reagent, FACS + sequencing; frameworks hold sequencing errors. Put shortly: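 Galactose induction of a Saccharomyces cerevisiae BJ5465 synthetic nanobody display library ran 36–48 hours. The cells were then stained for 1 hour at 4 °C with 10% biotinylated, detergent-solubilized Sf9 membrane reagent, pulled down on streptavidin microbeads and FACS-sorted into low and high (top ~1%) gates on expression and reagent-binding fluorescence. Labels for polyreactivity follow the gate of origin.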
As for “QVQLVESGGGLVQAGGSLRLSCAASGRIFRVYAMGWYRQAPGKERELVASISSGGSTNYADSVKGRFTISRENAKNTVYLQMNSLKPEDTAVYYCAADYWYRLFWYYGAPLDYWGQGTQVTVSS”, the “polyreactivity (PSR sort gate)” value is “low polyreactivity”.

In the case of “QVQLVESGGGLVQAGGSLRLSCAASGRIFRWNAMGWYRQAPGKERELVAAISSSGGRTYYADSVKGRFTISRDTAKNTVYLQMNSLKPEDTAVYYCAAYPFSDEYDYWGQGTQVTVSS”, the “polyreactivity (PSR sort gate)” value was “high polyreactivity”.

Turning to “QVQLVESGGGLVQAGGSLRLSCAASGRIFRWNAMGWYRQAPGKERELVAAISWNGGRTYYADSVKGRFTISRDNAKNTVYLQMNSLKPEDTAVYYCAAPHSVPDLHSGDYWGQGSQVTVSS”, the “polyreactivity (PSR sort gate)” value is reported as “low polyreactivity”.

Consider “QVQLVESGGGLVQAGGSLRLSCAASGRIFRWNAMGWYRQAPGKERELVAVISSGGSTNYADSVKGRFTISRDNAKNTVYLQMNSLKPEDTAVYYCAADEGYVWPYYGWGFGKYDYWGQGTQVTVSS”, for which the “polyreactivity (PSR sort gate)” value was “low polyreactivity”.

Regarding “QVQLVESGGGLVQAGGSLRLSCAASGRIFRWYAMGWYRQAPGKERELVAAISWSGGRTYYADSVKGRFTISRDNAKNTVYFQMNSLKPEDTAVYYCAAEGAIPRYYIGGVDYWGQGTQVTVSS”, the “polyreactivity (PSR sort gate)” value was “high polyreactivity”.

For the sequence “QVQLVESGGGLVQAGGSLRLSCAASGRIFRWYAMGWYRQAPGKERELVAAISYSGGSTYYADSVKGRFTISRDNAKNTVYLQMNSLKPEDTAVYYCAAATYYKFDYWGQGTQVTVSS”, the “polyreactivity (PSR sort gate)” value is listed as “high polyreactivity”.

In the case of “QVQLVESGGGLVQAGGSLRLSCAASGRIFRWYAMGWYRQAPGKERELVATISSTGGSTYYADSVKGRFTLSRDNAKNTVYLQMNSLKPEDTAVYYCNAVVYGIFLYAWYDYWGQGTQVTVSS”, the “polyreactivity (PSR sort gate)” value was “low polyreactivity”.

In the case of “QVQLVESGGGLVQAGGSLRLSCAASGRIFRYNAMGWSRQAPGKERELVAAISRRGGTTYYADSVKGRFTISRDNAKNTVYLQMNSLKPEDTAVYDCAAQYRQRRHDYWGQGTQVTVSS”, the “polyreactivity (PSR sort gate)” value is reported as “high polyreactivity”.

On to “QVQLVESGGGLVQAGGSLRLSCAASGRIFRYNAMGWYRQAPGKERELVAAITRSGGRTYYADSVKGRFTISRDNAKYTVYLQMNSLKPEDTAVYYCAADKYPSSPYVGDVDYWGQGTQVTVSS”, for which the “polyreactivity (PSR sort gate)” value was “high polyreactivity”.

Regarding “QVQLVESGGGLVQAGGSLRLSCAASGRIFRYNAMGWYRQAPGKGRELVAAITWDGGSTYYADSVKGRFTISRDNAKYTVYLQMNSLKPEYTAVYYCKAVTRSYYSDYYWGQGTQVTVSS”, the “polyreactivity (PSR sort gate)” value is “high polyreactivity”.

As to “QVQLVESGGGLVQAGGSLRLSCAASGRIFRYYAMGCYRQAPGKERELVAAITRGGSTNYADSVKGRFTISRDNAKNTVYLQMNSLKPEDTAVYYCAAAYRGRYKYYYWGQGSQVTVSS”, the “polyreactivity (PSR sort gate)” value was “high polyreactivity”.

For “QVQLVESGGGLVQAGGSLRLSCAASGRIFRYYAMGSYRQAPGKERELVAAISRSGGSTYYADSVKGRFTISRDNAKNTVYLQMNSLKPEDTAVYSCAARLAGRGSSSSRVVRTGGYWGQGTQVTVSS”, the “polyreactivity (PSR sort gate)” value is “high polyreactivity”.

As to “QVQLVESGGGLVQAGGSLRLSCAASGRIFRYYAMGWYRQAPGIERELVAAISYRGGSTYYADSVKGRFTISRDNAKNTVYLQMNSLKPEDTAVYYCNIVPRIDTRYDYWGQGTQVTVSS”, the “polyreactivity (PSR sort gate)” value is listed as “high polyreactivity”.

With “QVQLVESGGGLVQAGGSLRLSCAASGRIFRYYAMGWYRQAPGKERELVAAIRSGGSTNYADSVKGRFTISRDNATNTVYLQLNSLKPEDTAVYYCNARYRYFKGGYWGQGTQVTVAS”, the “polyreactivity (PSR sort gate)” value is recorded as “high polyreactivity”.

As for “QVQLVESGGGLVQAGGSLRLSCAASGRIFRYYAMGWYRQAPGKERELVAAISRSGSTNYADSVKGRFTISRDNAKNTVYLQMNSLKPEDTAVYYCAADSNYLYFWRRYKRMDYWGQGTQVTVSS”, the “polyreactivity (PSR sort gate)” value was “high polyreactivity”.

In the case of “QVQLVESGGGLVQAGGSLRLSCAASGRIFRYYAMGWYRQAPGKERELVAAITGRGTSTYYADSVKGRFTISRDNAKNTVYVQMNSLKPEDTAVYYCAAGSVLRYWAGDYWGQGTQVTVSS”, the “polyreactivity (PSR sort gate)” value was “low polyreactivity”.

“QVQLVESGGGLVQAGGSLRLSCAASGRIFRYYAMGWYRQAPGKERELVAAITRGGSTNYADSVKGRFTISRDNAKNTVYLQMNSLKPEDTAVYYCATRQSWYPRWMDYWGQGTQVTVSS”: the “polyreactivity (PSR sort gate)” value is “high polyreactivity”.

For the sequence “QVQLVESGGGLVQAGGSLRLSCAASGRIFRYYAMGWYRQAPGKERELVAGISWRGSSTYYADSVKGRFTISRDNAKNTVYLQMNSLKPADTAVYYCNRDLSIIPVTGGRFYYWGQGTQVTVSS”, the “polyreactivity (PSR sort gate)” value was “high polyreactivity”.

For “QVQLVESGGGLVQAGGSLRLSCAASGRIFRYYAMGWYRQAPGKERELVATIDWSVGSTYYADSVKGRFTISRDNAKNTVYLQMNSLKPEDTAVYYCAKRGPQVWTFDYDSSGQGTQVTVSS”, the “polyreactivity (PSR sort gate)” value is “low polyreactivity”.

With “QVQLVESGGGLVQAGGSLRLSCAASGRIFRYYAMGWYRQAPGKETELVAAISKSGGGTFYADSVKGRFTISRDNAKNPVYLQMNSLKPEDTAVYYCAARDKGLGKHDYWGQGTQVTVSS”, the “polyreactivity (PSR sort gate)” value is “high polyreactivity”.

As to “QVQLVESGGGLVQAGGSLRLSCAASGRIFRYYAMGWYRQAPWKERELVAVINWSGGSTYYADSVKGRFTISRDNAKNTVYLLMNSLKPEDTAVYYCNVYSVYPQFNYWGQGTQVTVSS”, the “polyreactivity (PSR sort gate)” value is listed as “high polyreactivity”.

For the sequence “QVQLVESGGGLVQAGGSLRLSCAASGRIFRYYVMGWYRHAPGKEREFVASISGRGASTYYADSVKGRFTISRDNAKNTVYLLMNSLKPEDTAVYYCNADVWLLSYFPEYDYWGQGTQVTVSS”, the “polyreactivity (PSR sort gate)” value is given as “low polyreactivity”.

Take “QVQLVESGGGLVQAGGSLRLSCAASGRIFSANAMGWYRQAPGKERELVATISTGGGRTYYADSVKGRFTISRDNAKNTVYLQMNSLKPVDTAVYYCNATRNYARVRYYYWGQGTQVTVSS”: the “polyreactivity (PSR sort gate)” value is listed as “high polyreactivity”.

For the sequence “QVQLVESGGGLVQAGGSLRLSCAASGRIFSAYAMGWYRQAPGKEREFVAAISARGGSTNYADSVKGRFTISRDNAKNTVYLQMNSLNPEDTAVYYCNDRYVQWYWIAKVIHIDNDYWGQGTQVTVSS”, the “polyreactivity (PSR sort gate)” value is given as “low polyreactivity”.

For the sequence “QVQLVESGGGLVQAGGSLRLSCAASGRIFSAYAMGWYRQAPGKERELVAAITLSDGSTYYADSVKGRFTISRDNAKNTVYLQMNSLKPEDTAVYYCNADWYAYPYGYWGQGTQVTVSS”, the “polyreactivity (PSR sort gate)” value is recorded as “low polyreactivity”.

With “QVQLVESGGGLVQAGGSLRLSCAASGRIFSDYAMGWYRQAPGKERELVAAISWGGGRTYYADSVKGRFTISRDNAKNTVYLQMNSLKPEDTAVYYCNRGTVNSWARGYWGQGTQVTVSS”, the “polyreactivity (PSR sort gate)” value is reported as “high polyreactivity”.

“QVQLVESGGGLVQAGGSLRLSCAASGRIFSEYAMGWYRQAPGKERELVAAITRRGGSTYYADSVKGRFTISRDNAKNTVYLQMNSLKPEDTAVYYCNALLTGGYQDSYPDDYWGQGTQVTVSS”: the “polyreactivity (PSR sort gate)” value is reported as “high polyreactivity”.

On to “QVQLVESGGGLVQAGGSLRLSCAASGRIFSFNAMGWYRQAPGKERELVAGITDSGGSTYYADSVKGRFTISRDNAKNTVYSQMNSLKPEDTAVYYCNAEWPYSRVRDYFYAYDYWGQGTQVTVSS”, for which the “polyreactivity (PSR sort gate)” value is “low polyreactivity”.

For the sequence “QVQLVESGGGLVQAGGSLRLSCAASGRIFSFNAMGWYRQAPGKERELVATIRTDGTTNYADSVKGRFTISRDNAKNTVYLQMNSLKPEDSAVYYCATDSGWSTYDYWGQGTQVTVSS”, the “polyreactivity (PSR sort gate)” value is “high polyreactivity”.

For “QVQLVESGGGLVQAGGSLRLSCAASGRIFSFYSMGWYRQAPAKERELVATISKRAGSTYYADSVKGRFTISRDNAKNTVYLQMNSLKPEDTAVYYCAARKWYYASSRWRDYWGQGTQVTVSS”, the “polyreactivity (PSR sort gate)” value is on record as “high polyreactivity”.
